Literature values as cited in article PMC8758526.

Tests used:
TREM-1 (Mus musculus) = TREM-1 (Mus musculus) (UniProt Q9JKE2)
TLR4 (Mus musculus) = TLR4 (Mus musculus) (UniProt Q9QUK6)
Chain of UniProt Q9QUK6 (Q9QUK6 26-835): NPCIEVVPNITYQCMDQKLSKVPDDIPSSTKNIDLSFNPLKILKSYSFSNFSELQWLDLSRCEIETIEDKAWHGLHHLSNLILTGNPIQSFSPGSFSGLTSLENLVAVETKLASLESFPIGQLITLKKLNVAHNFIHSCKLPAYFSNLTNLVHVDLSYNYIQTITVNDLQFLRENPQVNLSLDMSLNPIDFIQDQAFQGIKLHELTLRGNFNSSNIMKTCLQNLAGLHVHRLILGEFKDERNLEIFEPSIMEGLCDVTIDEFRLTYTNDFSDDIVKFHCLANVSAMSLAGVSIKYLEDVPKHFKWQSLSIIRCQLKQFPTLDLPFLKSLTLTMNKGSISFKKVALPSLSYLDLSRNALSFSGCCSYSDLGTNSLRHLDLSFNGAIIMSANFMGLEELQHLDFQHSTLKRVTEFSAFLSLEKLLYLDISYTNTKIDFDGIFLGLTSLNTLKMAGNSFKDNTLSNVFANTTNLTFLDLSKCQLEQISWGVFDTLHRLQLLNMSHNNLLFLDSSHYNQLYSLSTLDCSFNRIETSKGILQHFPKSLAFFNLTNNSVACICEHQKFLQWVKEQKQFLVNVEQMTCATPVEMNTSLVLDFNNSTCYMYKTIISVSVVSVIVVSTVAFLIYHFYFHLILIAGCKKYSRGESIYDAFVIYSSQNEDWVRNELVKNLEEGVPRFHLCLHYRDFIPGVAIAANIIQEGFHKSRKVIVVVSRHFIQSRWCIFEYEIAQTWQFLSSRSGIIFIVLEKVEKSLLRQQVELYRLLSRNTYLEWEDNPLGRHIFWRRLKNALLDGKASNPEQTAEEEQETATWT

Chain of UniProt Q9JKE2 (Q9JKE2 21-230): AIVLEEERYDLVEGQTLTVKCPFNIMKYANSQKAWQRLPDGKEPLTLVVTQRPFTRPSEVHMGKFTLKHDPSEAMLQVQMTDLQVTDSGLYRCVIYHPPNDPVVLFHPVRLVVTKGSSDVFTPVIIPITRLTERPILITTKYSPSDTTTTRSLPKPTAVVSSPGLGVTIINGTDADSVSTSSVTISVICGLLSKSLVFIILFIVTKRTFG

For eCIRP (from UniProt P60824), the Kd (TREM-1 (Mus musculus)) is listed as 0.117 µM and the Kd (TLR4 (Mus musculus)) is listed as 0.617 µM.
